These results are taken from patent US7341992B2, “Lectin-like domain of thrombomodulin and its therapeutic use” (Vlaams Interuniversitair Instituut Voor Biotechnologie VZW, priority 2001, dated 2008).

This assay relates to fEND.5 cells. The experiment in a line: Static adhesion assay: human neutrophils on activated fEND.5 cells. Type of assay: cell-based, murine endothelial cell line. As to conditions: for LPS-induced adhesion of human neutrophils to fEND.5 cells (effect in words) / PMN Adhesion to LPS-stimulated fEND.5 Cells, Mean: LPS 20 μg/ml 3 hrs; for PMN Adhesion to LPS-stimulated fEND.5 Cells, Mean / PMN Adhesion to TNF-stimulated fEND.5 Cells, Mean: human neutrophils 50,000 per well; for TNF-induced adhesion of human neutrophils to fEND.5 cells (effect in words) / PMN Adhesion to TNF-stimulated fEND.5 Cells, Mean: TNFα 200 U/ml 3 hrs. As for the experimental part: Static adhesion assays using human neutrophils (50,000 per well) and confluent fEND.5 cells in 24-well plates were performed exactly as described (see below—Methods section 11). Where noted, TNFα (200 U/ml) or LPS 20 μg/ml, were used to activate the fEND.5 cells for 3 hrs. PMNs were co-incubated with one of the recombinant human TM fragments 1, 2 or 4, (SEQ ID NO 1, 2, 4) or with HPLC-purified peptides representing human TM fragments 3,6 or 7 (SEQ ID NO 3, 6, 7). Tables 11-17 show results, where the amount of recombinant fragment in μg is shown on the bar graphs, and * indicates p<0.05 as compared with buffer control (i.e. without recombinant protein) under the same conditions. In all cases, appropriate controls were used for comparisons.
Endothelial cells were plated in 24-well dishes and grown to confluence. Following 2 washes of the cell monolayers with HBSS, freshly prepared BCECF-AM-labeled, neutrophils derived from human peripheral blood, or murine bone marrow-derived PMNs or lymphocytes 50,000 per well, were added in a final volume of 1 ml for 30 minutes at room temperature. The media was decanted and the cell monolayers were gently washed three times with HBSS after which the adherent fluorescently labeled leukocytes were counted with an inverted epiflourescence microscope as described above.

For the molecule “pept. N^o 24: HPLC-purified peptide, amino acids 3-33 of SEQ ID NO: 1 (human TM) (PQPGGSQCVEHDCFALYPGPATFLNASQICD; PEPTIDE (1)...(31) Human thrombomodulin fragment 3; listed as Homo sapiens)”, the “LPS-induced adhesion of human neutrophils to fEND.5 cells (effect in words)” value (“LPS-induced adhesion” for short) is listed as “significantly suppressed”. Further, the “PMN Adhesion to LPS-stimulated fEND.5 Cells, Mean” value (1 μg of fragment) was found to be 38.830. Further, under “5 μg of fragment”, the “PMN Adhesion to LPS-stimulated fEND.5 Cells, Mean” value is 44.019. Also, the “PMN Adhesion to LPS-stimulated fEND.5 Cells, Mean” value (8 μg of fragment) is given as 22.000.

Regarding “pept n^o 23: HPLC-purified peptide, amino acids 84-97 of SEQ ID NO: 1 (human TM)”, the “LPS-induced adhesion” value is “significantly suppressed”. Moreover, under “1 μg of fragment”, the “PMN Adhesion to LPS-stimulated fEND.5 Cells, Mean” value is 31.015. The “PMN Adhesion to LPS-stimulated fEND.5 Cells, Mean” value (5 μg of fragment) is 21.535.

B1: pr. 480 bp: Recombinant human TM fragment, amino acids 1 to 157 of the mature protein, expressed in Pichia pastoris (protein, listed as Homo sapiens)
chain: AEPQPGGSQCVEHDCFALYPGPATFLNASQICDGLRGHLMTVRSSVAADVISLLLNGDGGVGRRRLWIGLQLPPGCGDPKRLGPLRGFQWVTGDNNTSYSRWARLDLNGAPLCGPLCVAVSAAEATVPSEPIWEEQQCEVKADGFLCEFHFPATCRP
modifications: PEPTIDE (1)...(157) Human thrombomodulin fragment 2
notes: Recombinant human TM fragment, amino acids 1 to 157 of the mature protein, expressed in Pichia pastoris
Take B1: the “LPS-induced adhesion” value is given as “significantly suppressed”. The “PMN Adhesion to LPS-stimulated fEND.5 Cells, Mean” value (5 μg of fragment) is listed as 27.68. Further, the “PMN Adhesion to LPS-stimulated fEND.5 Cells, Mean” value (8 μg of fragment) is reported as 25.50. The “PMN Adhesion to LPS-stimulated fEND.5 Cells, Mean” value (15 μg of fragment) was determined as 19.01.

B2: pr. 680 bp: Recombinant human TM fragment, amino acids 1 to 224 of the mature protein, entire N-terminal domain, expressed in Pichia pastoris (protein, listed as Homo sapiens)
chain: AEPQPGGSQCVEHDCFALYPGPATFLNASQICDGLRGHLMTVRSSVAADVISLLLNGDGGVGRRRLWIGLQLPPGCGDPKRLGPLRGFQWVTGDNNTSYSRWARLDLNGAPLCGPLCVAVSAAEATVPSEPIWEEQQCEVKADGFLCEFHFPATCRPLAVEPGAAAAAVSITYGTPFAARGADFQALPVGSSAAVAPLGLQLMCTAPPGAVQGHWAREAPGAWD
modifications: PEPTIDE (1)...(224) Human thrombomodulin fragment 1
notes: Recombinant human TM fragment, amino acids 1 to 224 of the mature protein, entire N-terminal domain, expressed in Pichia pastoris
As to B2, the “LPS-induced adhesion” value is recorded as “significantly suppressed” and the “TNF-induced adhesion of human neutrophils to fEND.5 cells (effect in words)” value was “significantly suppressed”. Besides, for the setting “5 μg of fragment”, the “PMN Adhesion to LPS-stimulated fEND.5 Cells, Mean” value came to 29.403 and the “PMN Adhesion to TNF-stimulated fEND.5 Cells, Mean” value was determined as 85.656. Also, the “PMN Adhesion to LPS-stimulated fEND.5 Cells, Mean” value (8 μg of fragment) was found to be 24.292. Besides, the “PMN Adhesion to LPS-stimulated fEND.5 Cells, Mean” value (15 μg of fragment) came out at 18.333. Also, for the setting “10 μg of fragment”, the “PMN Adhesion to TNF-stimulated fEND.5 Cells, Mean” value is reported as 24.303.

B3: pr. 400 bp: Recombinant human TM fragment, amino acids 33 to 159 of the mature protein, expressed in Pichia pastoris (protein, listed as Homo sapiens)
chain: DGLRGHLMTVRSSVAADVISLLLNGDGGVGRRRLWIGLQLPPGCGDPKRLGPLRGFQWVTGDNNTSYSRWARLDLNGAPLCGPLCVAVSAAEATVPSEPIWEEQQCEVKADGFLCEFHFPATCRPLA
modifications: PEPTIDE (1)...(127) Human thrombomodulin fragment 4
notes: Recombinant human TM fragment, amino acids 33 to 159 of the mature protein, expressed in Pichia pastoris
As to B3, the “LPS-induced adhesion” value is “suppressed” and the “TNF-induced adhesion of human neutrophils to fEND.5 cells (effect in words)” value was “suppressed”. Further, for the setting “5 μg of fragment”, the “PMN Adhesion to LPS-stimulated fEND.5 Cells, Mean” value is listed as 33.642. Further, where the note is “8 μg of fragment”, the “PMN Adhesion to LPS-stimulated fEND.5 Cells, Mean” value worked out at 29.725 and the “PMN Adhesion to TNF-stimulated fEND.5 Cells, Mean” value stood at 53.417. The “PMN Adhesion to TNF-stimulated fEND.5 Cells, Mean” value (20 μg of fragment) stood at 63.500.
